Reference: patent publication US20250296985A1 (TRANSLATIONAL HEALTH SCIENCE AND TECHNOLOGY INSTITUTE, published 2025)
Like-named read-outs stand apart in the source and are kept apart here.

B1: THSC20.HVTR04 (antibody, V domains shown)
VH: QVQLVESGGGVVQPGRSLRLSCAASGFTFSNYAIHWVRQAPGKGLEWVAVVSYDGSNKYYAESVKGRFTISRDNSKNTLSLQMISLRPEDTAVYYCASVADTAMVPEWYFDLWGRGTLVTVSS
VL: QSVLTQPRSVSGSPGQSVTISCTGTSSDVGAYNYVSWYQQHPGKAPKLMIYDVSARPSGVPDRFSGSKSGNTASLTISGLQAEDEADYYCCSYAGSWVFGGGTKLTVL
B2: THSC20.HVTR55 (antibody, V domains shown)
VH: EVQLVQSGAEVKKPGESLRISCKGSGFRFTNYWIGWVRQMPGKGLEWMGIIYPGDSDTRYSPSFQGQVTISADKSLSTAYLQWSSLQASDTAIYYCARRDRWELDPLDYWGQGTLVTVSS
VL: DIVMTQSPSTLSASVGDRVTITCRASQSISSWLAWYQQKPGKAPNLLIYKASSLESGVPSRFSGSGSGTEFTLTISGLQPDDFATYYCQHYNGYPYTFGQGTKLEIK
B3: THSC20.HVTR26 (antibody, V domains shown)
VH: EVQLVESGGGLVQPGGSLRLSCAASGFTVSSNYMSWVRQAPGKGLEWVSAIYSGDSTYYADSVKGRFTISRHNPKNTLYLQMNSLRAEDTAVYYCARLVGALTNIVVSGDGGAFDIWGQGTMVTVSS
VL: SYELTQPASVSGSPGQSITISCTGTSSDVGSYNLVSWYQQHPGKAPKLMIYEVSKRPSGVSNRFSGSKSGNTASLTISGLQAEDEVDYYCCSYAGSSTWVFGGGTKLTVL
B4: THSC20.HVTR06 (antibody, V domains shown)
VH: QLQLVQSGSELKKPGASVKVSCKASGYTFTKYTVNWVRQAPGQGLEWMGWINTNTGNPTSAQGFTGRFVFSLDTSVSTAYLHISSLKTEDTAVYYCARVLGDQQVVGGDDYYYYYAMDVWGQGTPVTVSS
VL: SYELTQPPSVSVSPGQTASITCSGDKLGDKYASWYQQKPGQSPVLVIYQDTKRPSGIPERFSGSNSGNTATLTITGTQAMDETDYYCQAWDNSGWVFGGGTKLTVL
B5: THSC20.HVTR39 (antibody, V domains shown)
V domain 1: QVQLQESGPGLVRPSETLSLTCIVSGGSINSRSYSWGWIRQPPGKGLEWIGNVYYSGTTYYNPSLKSRVTISVDTSKNQFSLNLSSVTAADTAVYYCARNLFYYDRSGSSHHDAFDIWGQGTMVTVSS
V domain 2: HGYVRPLSVAPGQTARITCGGNNIGSKSVHWYQQKPGQAPVLVVYGDGDRPSGIPERFSGSNSGNTATLTISRVEAGDEADYYCQVWDRGSDVWVFG
B6: THSC20.HVTR88 (antibody, V domains shown)
VH: QVQLVQSGAEVKKPGASVKVSCKASGYPFTSYVISWVRQAPGQGLEWMGWISAYNGNTDYAQKLQGRVTMTTDTSTSTAYMELRSLRSDDTAVYYCAREGKYSSGWSYSEYFDYWGQGTLVTVSS
VL: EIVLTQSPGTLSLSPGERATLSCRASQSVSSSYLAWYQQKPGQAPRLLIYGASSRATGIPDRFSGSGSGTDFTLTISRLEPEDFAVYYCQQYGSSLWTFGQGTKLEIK
B7: THSC20.HVTR11 (antibody, V domains shown)
VH: EVQLVQSGAEVKKPGSSVKVSCKASGGTFSSYTISWVRQAPGQGLEWMGRIIPILGIANYAQKFQGRVTITADKSTSTACMELSSLRSEDTAVYFCARIRGYSGYGSSYYFDYWGQGTLVTVSS
VL: QSVLTQPPSVSGAPGQRVTISCTGSSSNIGAGYDVHWYQQLPGTAPKLLIYGNSNRPSGVPDRFSGSKSGTSASLAITGLQAEDEADYYCQSYDSSLSHEVFGGGTKLTVL

Tests used:
[1] = molecular target: T1, Biotinylated wild type SARS-CoV-2 receptor binding domain (RBD) antigen (SARS-CoV-2, Wuhan isolate (wild type), UniProt P0DTC2 319-541)
[2] = molecular target: T1, Biotinylated wild type SARS-CoV-2 …; remark: listed apart in the source

Binder | Kd [1] | Kd [2] | koff [2] | kon [2]
B1 | 190 pM | 196 pM |  | 
B2 |  | < 1 pM | < 1e-07 s⁻¹ | 
B3 | 220 pM | 255 pM |  | 
B4 |  | 635 pM |  | 
B5 |  | 513 pM |  | 
B6 |  | 427 pM |  | 
B7 |  | < 1 pM | < 1e-07 s⁻¹ | 103000 M⁻¹ s⁻¹
